Measurements as given in paper PMC11931385, “Structural and functional analysis of cancer-associated missense variants in the retinoblastoma protein pocket domain” (The Journal of Biological Chemistry, 2025).
Substitutions are numbered along the chain they refer to. Names and notes keep the numbering of the source. No end group written: not given here. TMR = tetramethyl rhodamine dye

Legend:
Test in all cases: fluorescence polarisation; 37 °C, after the 25 °C reading ramped over 7 min to 37 °C and 2 min incubation; unlabeled Rb^P against 1.5 nM TMR-E2F1^TD or 7.5 nM TMR-E7^LxCxE; 25 mM Tris pH 8.0, 200 mM NaCl, 1 mM DTT, 0.1% Tween-20; apparent Kd
Conditions in all cases: both partners purified
Rb^P A525G = biological target: T1, Rb^P A525G (human, UniProt P06400 380-788, A525G)
T1 construct: also called variant 20
T1 sequence (looked up): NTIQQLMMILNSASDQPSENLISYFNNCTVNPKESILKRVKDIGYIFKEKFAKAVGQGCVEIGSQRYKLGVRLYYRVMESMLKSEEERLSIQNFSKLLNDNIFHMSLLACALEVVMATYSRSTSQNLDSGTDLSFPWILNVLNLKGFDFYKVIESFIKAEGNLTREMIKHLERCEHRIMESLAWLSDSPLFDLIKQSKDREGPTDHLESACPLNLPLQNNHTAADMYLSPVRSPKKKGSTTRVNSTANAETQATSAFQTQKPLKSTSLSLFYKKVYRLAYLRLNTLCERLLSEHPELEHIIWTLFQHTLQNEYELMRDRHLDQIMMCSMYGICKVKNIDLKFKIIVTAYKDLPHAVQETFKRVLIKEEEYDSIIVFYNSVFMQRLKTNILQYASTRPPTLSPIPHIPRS

Rb^P H585Y = biological target: T2, Rb^P H585Y (human, UniProt P06400 380-788, H585Y)
T2 construct: also called variant 33
T2 sequence (looked up): T1 sequence (looked up) with G146A, H206Y

Rb^P R621P = biological target: T3, Rb^P R621P (human, UniProt P06400 380-788, R621P)
T3 construct: also called variant 43
T3 sequence (looked up): T1 sequence (looked up) with G146A, R242P

Rb^P S534R = biological target: T4, Rb^P S534R (human, UniProt P06400 380-788, S534R)
T4 construct: also called variant 23
T4 sequence (looked up): T1 sequence (looked up) with G146A, S155R

Rb^P R451H = biological target: T5, Rb^P R451H (human, UniProt P06400 380-788, R451H)
T5 construct: also called variant 6
T5 sequence (looked up): T1 sequence (looked up) with R72H, G146A

B1: TMR-E2F1^TD, peptide of the E2F1 transactivation domain (peptide)
peptide: {TMR}-GEGIRDLFDCDFGDLTPLD
notes: also called E2F^TD; source: synthetic peptide, bought: GenScript
Kd (Rb^P A525G): 65 nM
Kd (Rb^P H585Y): 92 nM
Kd (Rb^P R621P): 83 nM
Kd (Rb^P S534R): 18000 nM
Kd (Rb^P R451H): 56 nM

B2: TMR-E7^LxCxE, LxCxE peptide of the E7 oncoprotein from HPV (peptide)
peptide: DLYCYEQLN
modifications: also: TMR label, position not given here
notes: source: synthetic peptide, bought: GenScript
Kd (Rb^P A525G): 52 nM
Kd (Rb^P H585Y): 18 nM
Kd (Rb^P R621P): 32 nM
Kd (Rb^P S534R): 11 nM
Kd (Rb^P R451H): 22 nM
